# Patent US20250026820A1 (WUHAN YZY BIOPHARMA, published 2025)
# B1: B1B8-Fc-B1B8 (Fc fusion)
# heavy: EVQVVESGGGLVQPGGSLTLSCVASGFAFSFTPMRWVRQAPGKGLEWVSSISIRGDTTDYADSVKGRFTISRDNAKNTLYLQMNSLKPEDTAVYYCSRGSSISTSTERTQGTQVTVSSGGGGSDKTHTCPPCPAPPVAGPSVFLFPPKPKDTLMISRTPEVTCVVVDVSHEAPEVQFNWYVDGVEVHNAKTKPREEQFNSTFRVVSVLTVVHQDWLNGKEYKCKVSNKGLPAPIEKTISKTKGQPREPQVYTLPPSRDELTKNQVSLTCLVKGFYPSDIAVEWESNGQPENNYKTTPPVLDSDGSFFLYSKLTVDKSRWQQGNVFSCSVMHEALHNHYTQKSLSLSPGGGGGSEVQVVESGGGLVQPGGSLTLSCVASGFAFSFTPMRWVRQAPGKGLEWVSSISIRGDTTDYADSVKGRFTISRDNAKNTLYLQMNSLKPEDTAVYYCSRGSSISTSTERTQGTQVTVSS
# Molecular target: TGFβ1 protein (GenScript Z03411) (human, UniProt P01137 279-390)
# Sequence (P01137 279-390 limits assumed, one chain of several): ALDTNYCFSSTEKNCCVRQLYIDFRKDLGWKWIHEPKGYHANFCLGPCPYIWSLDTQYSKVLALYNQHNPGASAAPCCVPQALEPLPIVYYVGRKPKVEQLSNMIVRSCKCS
# Test: cell-based or functional assay
binder,measurement,value
B1,EC50 of TGF-β1 inhibitory activity (TF-1 cell proliferation),0.813 nM
